Patent US9725518B2, “Antibodies that bind to Jagged 1” (Cancer Research Technology Limited, priority 2013, dated 2017)
Changes are numbered by the printed parent chain.

B1: J1-65D variant 4: humanised/de-immunised J1-65D: J1-65D_VL_1 + J1-65D_VH_4 (antibody, V domains shown)
VH: QVQLVQSGAEVKKPGSSVKVSCKASGYTFTDYEMHWVRQAPGQGLEWMGAIQPGGGGTAYAQKFQGRVTITADKSTSTAYMELSSLRSEDTAVYYCTRRGYDDYPFAYWGQGTLVTVSSASTKGP
VL: DIQMTQSPSSLSASVGDRVTITCRASGNIHNYLAWYQQKPGKAPKLLIYNAKTLADDVPSRFSGSGSGTDYTLTISSLQPEDFATYYCQHFWSAPWTFGGGTKLEIKRT
B2: J1-65D variant 8: humanised/de-immunised J1-65D: J1-65D_VL_2 + J1-65D_VH_4 (antibody, V domains shown)
VH: B1 VH
VL: B1 VL with D57A
B3: J1-65D variant 5: humanised/de-immunised J1-65D: J1-65D_VL_2 + J1-65D_VH_1 (antibody, V domains shown)
VH: B1 VH with V11L, A61N, Q65K, I70L
VL: B1 VL with D57A
B4: J1-65D variant 9: humanised/de-immunised J1-65D: J1-65D_VL_3 + J1-65D_VH_1 (antibody, V domains shown)
VH: B1 VH with V11L, A61N, Q65K, I70L
VL: B1 VL with D57A, G100Q
B5: J1-65D variant 12: humanised/de-immunised J1-65D: J1-65D_VL_3 + J1-65D_VH_4 (antibody, V domains shown)
VH: B1 VH
VL: B1 VL with D57A, G100Q

Target: T1, N1 binding to cell surface expressed hJ1 (Homo sapiens, UniProt P78504)
T1 construct: cell expressed full length human J1 (hJ1; HEK293 transfectants); expressed in transfected cells; host or cells: HEK293
Assay: Notch binding blocking assay (FACS): N1 EGF11-13 beads staining human J1-expressing cells
Set-up: key: +: Complete blocking; X: No blocking
Conditions: final antibody concentration 0.2 μg/ml
Summary of the method: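 E. coli-expressed, refolded human N1 EGF11-13 (411-526), biotinylated on avidin-coated fluorescent beads, stained human J1-transfected HEK293 cells with hybridoma supernatant or purified antibody diluted in HBSS/10% FCS. Purified mAbs titrated in dilution series; bead binding read by flow cytometry.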

T1 sequence (P78504 34-1218): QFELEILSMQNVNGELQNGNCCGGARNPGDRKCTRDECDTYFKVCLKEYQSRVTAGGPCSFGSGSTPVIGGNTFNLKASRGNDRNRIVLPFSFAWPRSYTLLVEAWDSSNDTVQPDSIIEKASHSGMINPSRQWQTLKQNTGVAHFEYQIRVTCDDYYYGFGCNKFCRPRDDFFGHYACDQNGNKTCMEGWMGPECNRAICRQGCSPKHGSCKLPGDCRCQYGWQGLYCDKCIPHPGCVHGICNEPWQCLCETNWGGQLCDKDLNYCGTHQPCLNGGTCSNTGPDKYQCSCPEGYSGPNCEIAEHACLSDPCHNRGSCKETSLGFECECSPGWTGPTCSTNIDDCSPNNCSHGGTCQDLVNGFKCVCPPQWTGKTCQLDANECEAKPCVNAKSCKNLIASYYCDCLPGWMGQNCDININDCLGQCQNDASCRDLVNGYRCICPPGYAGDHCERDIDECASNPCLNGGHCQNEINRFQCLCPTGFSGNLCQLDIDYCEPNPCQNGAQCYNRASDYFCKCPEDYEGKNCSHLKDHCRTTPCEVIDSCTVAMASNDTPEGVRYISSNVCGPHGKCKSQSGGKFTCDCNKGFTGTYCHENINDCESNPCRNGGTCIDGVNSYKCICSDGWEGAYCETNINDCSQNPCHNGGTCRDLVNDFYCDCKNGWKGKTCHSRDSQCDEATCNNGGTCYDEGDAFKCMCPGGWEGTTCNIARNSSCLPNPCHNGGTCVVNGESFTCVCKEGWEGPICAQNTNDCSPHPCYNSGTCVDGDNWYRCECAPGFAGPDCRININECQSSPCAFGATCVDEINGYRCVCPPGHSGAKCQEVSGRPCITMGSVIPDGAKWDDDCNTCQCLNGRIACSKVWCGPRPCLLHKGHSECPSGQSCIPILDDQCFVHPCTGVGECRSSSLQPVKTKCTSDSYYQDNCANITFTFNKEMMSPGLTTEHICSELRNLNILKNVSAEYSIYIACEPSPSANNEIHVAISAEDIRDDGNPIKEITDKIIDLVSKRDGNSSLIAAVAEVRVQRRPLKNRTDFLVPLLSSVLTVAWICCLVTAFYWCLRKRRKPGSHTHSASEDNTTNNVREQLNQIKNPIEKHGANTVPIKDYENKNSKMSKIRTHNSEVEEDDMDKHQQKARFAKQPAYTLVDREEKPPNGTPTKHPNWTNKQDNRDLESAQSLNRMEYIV

Row | Blocking of Notch1 binding to cell surface Jagged 1 | Molecule
1 | X | B1
2 | X | B2
3 | X | B3
4 | X | B4
5 | X | B5

Same assay, conditions: final antibody concentration 0.4 μg/ml

Row | Blocking of Notch1 binding to cell surface Jagged 1 | Molecule
6 | + (Complete blocking) | B1
7 | + (Complete blocking) | B2
8 | + (Complete blocking) | B3
9 | + (Complete blocking) | B4
10 | + (Complete blocking) | B5

Same assay, conditions: final antibody concentration 0.6 μg/ml

Row | Blocking of Notch1 binding to cell surface Jagged 1 | Molecule
11 | + (Complete blocking) | B1
12 | + (Complete blocking) | B2
13 | + (Complete blocking) | B3
14 | + (Complete blocking) | B4
15 | + (Complete blocking) | B5

Same assay, conditions: final antibody concentration 1.0 μg/ml

Row | Blocking of Notch1 binding to cell surface Jagged 1 | Molecule
16 | + (Complete blocking) | B1
17 | + (Complete blocking) | B2
18 | + (Complete blocking) | B3
19 | + (Complete blocking) | B4
20 | + (Complete blocking) | B5

Test system: J1-induced Notch signalling
Assay: Luciferase assay, LS174T RBPJ reporter stimulated with J1 protein
Assay type: cell-based, human
Conditions: humanised/chimeric mAbs 10 μg/ml, NE3-Fc; DBZ control
Description: FIG. 9. […] (A) The colorectal cancer cell line LS174T expressing luciferase under the control of Notch co-factor RBPJ was stimulated with mammalian cell-expressed soluble J1 proteins (NE3-Fc and NE12-Fc) or a control protein in the presence of J1 mAbs (10 μg/ml), and luciferase activity was measured. […] (C) Breast cancer MDA-MB-231 cells were cultured with J1 mAbs. The expression level of the Notch target gene HES1 was measured by qPCR using β2m as the control gene. In all experiments the γ-secretase inhibitor DBZ was used as a positive control for pan Notch inhibition and a control mAb (IgG2b or IgG1) or no treatment (NT) were negative controls.
FIG. 20. Inhibition of human Jagged 1/Notch signalling by humanised and de-immunised J1-mAbs in vitro. The colorectal cancer cell line LS174T expressing luciferase under the control of Notch co-factor RbPJ was stimulated with mammalian cell-expressed recombinant J1 protein (NE3-Fc protein, right bar for each treatment) or a control protein (left bar) in the presence of J1 mAbs (10 μg/ml), and luciferase activity was measured. The parental murine monoclonal antibody (Mo), Murine IgG1, DMSO and DBZ were used as controls.
Having established that the J1 mAbs were able to block the binding of the J1 ligand to its receptor N1 their effect on the activity of the Notch signalling pathway was investigated. The human colorectal cancer cell line LS174T, stably expressing a luciferase reporter gene under control of Notch co-factor RBPJ, was stimulated with two forms of immobilised J1 protein: N-terminus to EGF3 and N-terminus to EGF12. […] Importantly, the best two J1 mAbs (J1-65D and J1-183D) were also tested against other Notch ligands in order to verify ligand specificity.
Prior to experiment, clear bottom 96-well plates (CELLSTAR) wells were coated with either J1-ECD fragments (NE3-Fc and NE12-Fc), other Notch-ligands (J2 or DLL4; both from R&D) or control protein (mlgG2b) at the concentration of 5 μg/ml in 0.1% BSA-PBS (overnight incubation at 4° C.). LS174T colorectal cancer cells, expressing the luciferase gene under control of the Notch cofactor RbPJ, were then plated (4×10^4 cells/well) in the presence of different mAbs (10 μg/ml) or DBZ (100 nM). Luciferase activity was then quantified 24 hours later using the Bright-Glo Luciferase Assay System (Promega).

Row | Molecule | inhibition of J1-induced luciferase activity
21 | B1 | inhibited as effectively as by the parental murine mAb
22 | B2 | inhibited as effectively as by the parental murine mAb
23 | B3 | inhibited as effectively as by the parental murine mAb
24 | B4 | inhibited as effectively as by the parental murine mAb
25 | B5 | inhibited as effectively as by the parental murine mAb

Test system: MDA-MB-231 spheroids
Assay: Spheroid assay (3-D growth), MDA-MB-231
Assay type: cell-based, human
Conditions: humanised variants 5 μg/ml
Source text: Similar findings were also reported for the Merck anti-N1 mAbs when tested on the LS-1034 cell line. As cell-cell contact is required to activate Notch signalling a spheroid-based 3-D growth model was used to test the ability of the J1 mAbs to block tumour growth. Furthermore, the 3-D model better mimics in vivo conditions including hypoxia and acidosis, allowing evaluation of the mAbs effect in a more realistic setting. Spheroids were generated from MDA-MB-231 breast cancer cells and the ability of different concentrations of the J1-65D mAb to inhibit their growth was evaluated.
Cells were harvested and resuspended in 2.5% Matrigel (BD)-complete DMEM medium. Cell suspension was plated on low-adherence 96-well plates (Corning) (200 μl/well) and spheroids, of approximately fixed cell number (5×10^3 cells for MDA-MB-231 and MDA-MB-468 cell lines; 2×10^3 for MCF7 cells) were then generated by spinning plates at 1800 rpm for 10 minutes. The following day, pictures of the spheroids were taken (day 1) and treatments were added (mAbs were used at 10 μg/ml [5 μg/ml for humanised antibodies] while DBZ was used at the concentration of 100 nM). In some experiments Paclitaxel (1 nM) and Doxorubicin (20 nM) were used in combination with J1-65D mAb treatment. Every 2 days pictures were taken and half of the medium was replaced with fresh one containing mAb/drug. At the end of the experiment, spheroids were either lysed for RNA extraction, were processed and paraffin-embedded for immunohistochemical analysis or were dissociated by pipetting and trypsinization into single cell suspensions for FACS analysis. Spheroid size was evaluated by image analysis using ImageJ software.

Row | Molecule | spheroid growth inhibition
26 | B1 | slightly reduced ability to inhibit spheroid growth
27 | B2 | slightly reduced ability to inhibit spheroid growth
28 | B3 | most comparable to the parental mAb
29 | B4 | most comparable to the parental mAb
30 | B5 | slightly reduced ability to inhibit spheroid growth

Test system: not listed separately
Assay: Soluble aggregates of transiently expressed antibodies
Assay type: physicochemical
Conditions: Protein A purified antibody
Source text: The protein yield of these antibodies, their levels of soluble aggregates and their binding affinity to the immunogen (J1-DE3) are illustrated in (Table 6).

Row | Molecule | % soluble aggregate
31 | B1 | 0%
32 | B2 | 0%
33 | B3 | 0%
34 | B4 | 0%
35 | B5 | 0.47%
